Results published in EP4725501A1 (Staidson (Beijing) Biopharmaceuticals Co., Ltd., dated 2026).
Positions count from the first letter of the chain named. Names and notes keep the numbering of the source. Read-outs that look alike come from different tables or passages of the source. Blank lines part the entries; values can stand above or below the binder they belong to.

How the values were obtained:
[1] = target: T1, MASP2 in normal human plasma (human, UniProt O00187 16-686); assay: cell-based or functional assay
[2] = target: T2, human MASP2 (R444Q) - His (human, UniProt O00187 16-686); assay: ELISA; human MASP2 (R444Q)-His coated 0.1 ug/well, antibody titrated, goat anti-human IgG HRP
T2 construct: not shown: His tag at the C-terminus

[3] = target: T1, MASP2 in normal human plasma; assay: cell-based or functional assay; remark: listed apart in the source
[4] = target: T3, MASP3 in Factor D depleted human plasma (human, UniProt P48740-2 20-728); assay: cell-based or functional assay
T3 sequence (looked up): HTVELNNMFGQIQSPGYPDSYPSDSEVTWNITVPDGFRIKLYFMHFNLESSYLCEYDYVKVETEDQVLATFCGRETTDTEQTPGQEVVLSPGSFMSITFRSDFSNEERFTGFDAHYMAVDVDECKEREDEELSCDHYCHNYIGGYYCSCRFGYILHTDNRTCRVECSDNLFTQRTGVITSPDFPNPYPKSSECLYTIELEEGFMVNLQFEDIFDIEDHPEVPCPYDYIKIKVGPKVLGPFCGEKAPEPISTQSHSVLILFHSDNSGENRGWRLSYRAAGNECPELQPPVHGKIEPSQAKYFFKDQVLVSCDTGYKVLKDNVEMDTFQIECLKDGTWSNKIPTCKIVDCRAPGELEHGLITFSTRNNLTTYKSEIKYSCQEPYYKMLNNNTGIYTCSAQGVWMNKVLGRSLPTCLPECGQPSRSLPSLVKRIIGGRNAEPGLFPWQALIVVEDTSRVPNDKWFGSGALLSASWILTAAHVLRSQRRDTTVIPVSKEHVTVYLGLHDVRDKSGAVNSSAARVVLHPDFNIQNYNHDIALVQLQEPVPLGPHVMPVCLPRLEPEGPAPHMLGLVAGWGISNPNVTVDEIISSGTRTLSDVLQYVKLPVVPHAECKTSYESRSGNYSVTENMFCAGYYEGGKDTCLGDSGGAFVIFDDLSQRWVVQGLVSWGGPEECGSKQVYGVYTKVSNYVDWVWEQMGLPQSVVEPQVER

[5] = target: T4, human MASP3-His (human, UniProt P48740-2 20-728); assay: SPR (Biacore 8K); antibody immobilized on CM5 chip, antigen as analyte
T4 construct: also called human MASP3 antigen; not shown: His tag added to the terminal
T4 sequence (looked up): T3 sequence (looked up)

[6] = target: T5, monkey MASP3-His (monkey); assay: as above
T5 construct: monkey species not further specified

[7] = target: T6, mouse MASP3-His (mouse, UniProt P98064-2 25-733); assay: as above
T6 construct: not shown: His tag added to the terminal
T6 sequence (looked up): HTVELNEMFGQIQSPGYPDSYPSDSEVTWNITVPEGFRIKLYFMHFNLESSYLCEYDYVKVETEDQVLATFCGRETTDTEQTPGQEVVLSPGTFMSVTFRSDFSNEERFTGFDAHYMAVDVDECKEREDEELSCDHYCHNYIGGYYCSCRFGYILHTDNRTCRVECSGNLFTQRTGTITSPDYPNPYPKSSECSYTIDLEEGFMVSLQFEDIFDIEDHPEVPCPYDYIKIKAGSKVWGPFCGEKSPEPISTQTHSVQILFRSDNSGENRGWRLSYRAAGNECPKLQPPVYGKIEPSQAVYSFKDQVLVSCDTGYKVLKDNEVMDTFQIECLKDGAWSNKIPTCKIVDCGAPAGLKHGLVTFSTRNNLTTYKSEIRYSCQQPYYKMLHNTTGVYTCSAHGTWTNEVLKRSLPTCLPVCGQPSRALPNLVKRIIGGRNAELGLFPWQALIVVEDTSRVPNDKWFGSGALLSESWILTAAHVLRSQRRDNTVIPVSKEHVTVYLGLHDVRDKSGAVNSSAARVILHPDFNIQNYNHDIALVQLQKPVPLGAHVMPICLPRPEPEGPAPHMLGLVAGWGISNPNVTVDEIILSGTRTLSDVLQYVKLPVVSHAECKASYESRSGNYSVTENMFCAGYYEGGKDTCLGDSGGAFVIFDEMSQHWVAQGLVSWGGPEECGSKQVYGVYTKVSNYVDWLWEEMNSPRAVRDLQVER

[8] = target: T4, human MASP3-His; assay: cell-based or functional assay

T1 sequence (O00187 16-686 limits assumed): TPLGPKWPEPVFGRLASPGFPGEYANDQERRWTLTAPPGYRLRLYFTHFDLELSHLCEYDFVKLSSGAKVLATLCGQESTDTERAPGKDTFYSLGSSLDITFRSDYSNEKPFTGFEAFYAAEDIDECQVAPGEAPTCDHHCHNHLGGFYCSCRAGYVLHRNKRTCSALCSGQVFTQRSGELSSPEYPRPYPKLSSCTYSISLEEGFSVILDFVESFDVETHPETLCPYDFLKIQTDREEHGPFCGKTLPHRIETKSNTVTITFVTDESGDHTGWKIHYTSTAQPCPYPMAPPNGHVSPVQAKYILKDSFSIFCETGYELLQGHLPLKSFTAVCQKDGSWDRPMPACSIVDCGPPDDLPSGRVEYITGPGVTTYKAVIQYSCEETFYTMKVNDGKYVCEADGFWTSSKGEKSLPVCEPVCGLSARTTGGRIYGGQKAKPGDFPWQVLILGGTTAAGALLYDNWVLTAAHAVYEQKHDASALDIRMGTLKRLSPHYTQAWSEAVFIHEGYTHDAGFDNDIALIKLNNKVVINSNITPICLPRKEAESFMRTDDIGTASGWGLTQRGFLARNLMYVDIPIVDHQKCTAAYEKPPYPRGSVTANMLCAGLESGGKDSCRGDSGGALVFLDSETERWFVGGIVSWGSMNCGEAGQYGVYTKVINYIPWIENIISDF
T2 sequence (O00187 16-686 R444Q limits assumed): as the sequence (O00187 16-686 limits assumed) above, with R429Q counted along it

IC50 (nM), inhibition of complement C4b deposition (mannan-coated plate, 1% human plasma) [1]: 0.05 nM
EC50 [2]: 0.085 nM
B4: humM2mc51-1-S93E (antibody, V domains shown)
VH: QVQLQESGPGLVKPSETLSLTCTVSGYSITSDYAWNWIRQPPGKKLEWMGYISYSGRTSYNPSLKSRITISRDTSKNQFSLKLSSVTAADTAVYYCSRHYGDYWGQGTLVTVSS
VL: EIVMTQSPATLSVSPGERATLSCKASQNVGTNVAWYQQKPGQSPRALIYSASYRYSGIPARFSGSGSGTEFTLTISSLQSEDFAVYFCHQYNENPLTFGGGTKVEIK
notes: VL CDR3 mutant of humM2mc51-1

IC50 (nM), inhibition of complement C4b deposition (mannan-coated plate, 1% human plasma) [3]: 0.05 nM
IC50 (nM), inhibition of complement C4b deposition (mannan-coated plate, 1% human plasma) [1]: 0.037 nM
EC50 [2]: 0.089 nM
B5: humM2mc51-1-S93A (antibody, V domains shown)
VH: B4 VH
VL: B4 VL with E93A
notes: VL CDR3 deamidation-site mutant of humM2mc51-1; also called humM2mc51-S93A

IC50 (nM), inhibition of complement C4b deposition (mannan-coated plate, 1% human plasma) [3]: 0.16 nM
B10: humM2mc51-1-S93A+M3-K2-5-CrossMab-IgG1 (bispecific antibody)
heavy 1: QVQLQESGPGLVKPSETLSLTCTVSGYSITSDYAWNWIRQPPGKKLEWMGYISYSGRTSYNPSLKSRITISRDTSKNQFSLKLSSVTAADTAVYYCSRHYGDYWGQGTLVTVSSASVAAPSVFIFPPSDEQLKSGTASVVCLLNNFYPREAKVQWKVDNALQSGNSQESVTEQDSKDSTYSLSSTLTLSKADYEKHKVYACEVTHQGLSSPVTKSFNRGECDKTHTCPPCPAPEAAGGPSVFLFPPKPKDTLMISRTPEVTCVVVDVSHEDPEVKFNWYVDGVEVHNAKTKPREEQYNSTYRVVSVLTVLHQDWLNGKEYKCKVSNKALPAPIEKTISKAKGQPREPQVCTLPPSRDELTKNQVSLSCAVKGFYPSDIAVEWESNGQPENNYKTTPPVLDSDGSFFLVSKLTVDKSRWQQGNVFSCSVMHEALHNHYTQKSLSLSPGK
light 1: EIVMTQSPATLSVSPGERATLSCKASQNVGTNVAWYQQKPGQSPRALIYSASYRYSGIPARFSGSGSGTEFTLTISSLQSEDFAVYFCHQYNANPLTFGGGTKVEIKSSASTKGPSVFPLAPSSKSTSGGTAALGCLVKDYFPEPVTVSWNSGALTSGVHTFPAVLQSSGLYSLSSVVTVPSSSLGTQTYICNVNHKPSNTKVDKKVEPKSC
heavy 2: not shown
light 2: EIVLTQSPATLSVSPGERATLSCKSSQNLFNSRTRKNYLAWFQQKPGQSPRLLIYWASTRESGIPARFSGSGSGTEFTLTISSLQSEDFAVYYCKQSYIPFTFGGGTKVEIKRTVAAPSVFIFPPSDEQLKSGTASVVCLLNNFYPREAKVQWKVDNALQSGNSQESVTEQDSKDSTYSLSSTLTLSKADYEKHKVYACEVTHQGLSSPVTKSFNRGEC
Inhibit hemolysis IC50 [4]: 6.21 nM

Continued, binder first:

B1: humM2mc51-1 (antibody, V domains shown)
VH: B4 VH
VL: B4 VL with E93S
notes: Humanized anti-MASP2 antibody; also called anti-MASP2 antibody humM2mc51-1; parent antibody humM2mc51-1
IC50 (nM), inhibition of complement C4b deposition (mannan-coated plate, 1% human plasma) [1]: 0.055 nM
EC50 [2]: 0.086 nM

B2: humM2mc51-1-ES93DA (antibody, V domains shown)
VH: B4 VH
VL: B4 VL with E1D, E93A
notes: Mutant of humM2mc51-1
IC50 (nM), inhibition of complement C4b deposition (mannan-coated plate, 1% human plasma) [1]: 0.045 nM
EC50 [2]: 0.082 nM

B3: humM2mc51-1-N92S (antibody, V domains shown)
VH: B4 VH
VL: B4 VL with N92S, E93S
notes: VL CDR3 mutant of humM2mc51-1
IC50 (nM), inhibition of complement C4b deposition (mannan-coated plate, 1% human plasma) [1]: 0.09 nM
EC50 [2]: 0.079 nM

B6: humM2mc51-1-N92Q (antibody, V domains shown)
VH: B4 VH
VL: B4 VL with N92Q, E93S
notes: VL CDR3 mutant of humM2mc51-1
IC50 (nM), inhibition of complement C4b deposition (mannan-coated plate, 1% human plasma) [1]: 0.11 nM
EC50 [2]: 0.072 nM

B7: M3-K2-8 (antibody, V domains shown)
VH: QVQLVQSGAEVKKPGASVKVSCKASGYTFTGKWIEWVRQAPGQGLEWMGEILPGSGSTDYNERFKDRATFTADTSTSTAYMELSSLRSEDTAVYYCVRSEDLWGQGTLVTVSS
VL: DIVLTQSPDSLAVSLGERATINCKSSQNLFNSRTRKNYLAWFQQKPGQSPKLLIYWASTRESGVPDRFSGSGSGTDFTLTISSLQAEDVAVYYCKQSYIPFTFGGGTKVEIK
notes: Humanized M3-K2
Inhibit hemolysis IC50 [4]: 2.11 nM
Kd [5]: 1.04 nM
koff [5]: 0.000189 s⁻¹
kon [5]: 182000 M⁻¹ s⁻¹
Kd [6]: 0.77 nM
koff [6]: 0.000137 s⁻¹
kon [6]: 178000 M⁻¹ s⁻¹
Kd [7]: 0.77 nM
koff [7]: 0.000137 s⁻¹
kon [7]: 178000 M⁻¹ s⁻¹
IC50 (nM), inhibition of MASP3 enzyme activity (fluorescent tripeptide cleavage) [8]: 21.9 nM

B8: M3-K2-11 (antibody, V domains shown)
VH: B7 VH with A68V, A79V
VL: B7 VL with L4M
notes: Humanized M3-K2
Inhibit hemolysis IC50 [4]: 2.2 nM
Kd [5]: 1.34 nM
koff [5]: 0.000218 s⁻¹
kon [5]: 163000 M⁻¹ s⁻¹
Kd [6]: 0.86 nM
koff [6]: 0.000144 s⁻¹
kon [6]: 167000 M⁻¹ s⁻¹
Kd [7]: 0.86 nM
koff [7]: 0.000145 s⁻¹
kon [7]: 168000 M⁻¹ s⁻¹
IC50 (nM), inhibition of MASP3 enzyme activity (fluorescent tripeptide cleavage) [8]: 26.4 nM

B9: M3-K2-6 (antibody, V domains shown)
VH: B7 VH with M48I
VL: B7 VL
notes: Humanized M3-K2
Inhibit hemolysis IC50 [4]: 3.18 nM
Kd [5]: 1.45 nM
koff [5]: 0.00025 s⁻¹
kon [5]: 173000 M⁻¹ s⁻¹
Kd [6]: 0.887 nM
koff [6]: 0.000147 s⁻¹
kon [6]: 165000 M⁻¹ s⁻¹
Kd [7]: 0.887 nM
koff [7]: 0.000149 s⁻¹
kon [7]: 168000 M⁻¹ s⁻¹
IC50 (nM), inhibition of MASP3 enzyme activity (fluorescent tripeptide cleavage) [8]: 29.5 nM
